Laboratory results reported in IntAct's records for PubMed 19787799.

B1: Protein ERGIC-53 (Homo sapiens), P49257 (parent)
chain: MAGSRQRGLRARVRPLFCALLLSLGRFVRGDGVGGDPAVALPHRRFEYKYSFKGPHLVQSDGTVPFWAHAGNAIPSSDQIRVAPSLKSQRGSVWTKTKAAFENWEVEVTFRVTGRGRIGADGLAIWYAENQGLEGPVFGSADLWNGVGIFFDSFDNDGKKNNPAIVIIGNNGQIHYDHQNDGASQALASCQRDFRNKPYPVRAKITYYQNTLTVMINNGFTPDKNDYEFCAKVENMIIPAQGHFGISAATGGLADDHDVLSFLTFQLTEPGKEPPTPDKEISEKEKEKYQEEFEHFQQELDKKKEEFQKGHPDLQGQPAEEIFESVGDRELRQVFEGQNRIHLEIKQLNRQLDMILDEQRRYVSSLTEEISKRGAGMPGQHGQITQQELDTVVKTQHEILRQVNEMKNSMSETVRLVSGMQHPGSAGGVYETTQHFIDIKEHLHIVKRDIDNLVQRNMPSNEKPKCPELPPFPSCLSTVHFIIFVVVQTVLFIGYIMYRSQQEAAAKKFF
partner: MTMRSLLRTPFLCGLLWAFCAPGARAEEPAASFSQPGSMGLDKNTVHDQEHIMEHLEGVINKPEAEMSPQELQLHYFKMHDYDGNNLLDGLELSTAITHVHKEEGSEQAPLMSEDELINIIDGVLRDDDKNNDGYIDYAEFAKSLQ

Variants of: B1
Conditions: with mcfd2_human MCFD2, Q8NI22

Variant	effect of a mutation on the interaction
W67S	disrupting interaction strength
